Measurements taken from PMC12947862, “Oligomerization enables the selective targeting of an intrinsically disordered region by a small molecule” (Science Advances, 2026).

Assays:
EPI-001 [1] = experiment: intact MS; settings: t = 24 hours (last time point); parent: est. 21; read off a plot
EPI-001 [2] = experiment: 1H NMR chemical shift perturbation of EPI-001; settings: 1 molar equivalent of the corresponding Tau-5* mutant; parent: est. -0.018; read off a plot
Cys518 = experiment: NMR; settings: 5 °C, 20 mM sodium phosphate, no added salt stated, 3 mM TCEP, 0.05% (w/v) NaN3, Reduced free thiol, intrinsically disordered fragments, no ligand. Protein concentrations were 70 μM Nt C123, 300 μM Tau-5* C404 and 150 μM Ct C518.
[3] = molecular target: the molecule itself; experiment: dynamic light scattering; NR ADs in 20 mM sodium phosphate pH 7.4, 1 mM TCEP, 0.5% DMSO-d6, 5°C; percentage population of monomer and high-order species; 35 μM AR AD; with and without EPI-001
Cys123 (position 123, …) = experiment: NMR; settings: 5 °C, 20 mM sodium phosphate, no added salt stated, 3 mM TCEP, 0.05% (w/v) NaN3, Reduced free thiol, intrinsically disordered fragments, no ligand. Protein concentrations were 70 μM Nt C123, 300 μM Tau-5* C404 and 150 μM Ct C518.
[4] = molecular target: Cys404 (UniProt position 406, …); experiment: NMR; settings: 5 °C, 20 mM sodium phosphate, no added salt stated, 3 mM TCEP, 0.05% (w/v) NaN3, Reduced free thiol, intrinsically disordered fragments, no ligand. Protein concentrations were 70 μM Nt C123, 300 μM Tau-5* C404 and 150 μM Ct C518.

Molecule: AR AD fragment transactivation unit 5 (Tau-5*; residues 330 to 448) (from UniProt P10275) Y393S; W397A; Y406S; H413A
- other: EPI-001 adduct (%) (EPI-001 [1]): 2.5%
- response (EPI-001 [2]): -0.006 p.p.m.

Molecule: AR AD fragment transactivation unit 5 (Tau-5*; residues 330 to 448) (from UniProt P10275) G394A; S395A; G407A
- other: EPI-001 adduct (%) (EPI-001 [1]): 26%
- response (EPI-001 [2]): -0.042 p.p.m.

Molecule: AR AD fragment transactivation unit 5 (Tau-5*; residues 330 to 448) (from UniProt P10275) W433A; H434A; F437A
- other: EPI-001 adduct (%) (EPI-001 [1]): 9.3%
- response (EPI-001 [2]): -0.008 p.p.m.

Molecule: AR AD fragment transactivation unit 5 (Tau-5*; residues 330 to 448) (from UniProt P10275) L436P
- response (EPI-001 [2]): -0.013 p.p.m.

Molecule: AR AD fragment transactivation unit 5 (Tau-5*; residues 330 to 448) (from UniProt P10275) C404Y
- response (EPI-001 [2]): -0.021 p.p.m.

Molecule: AR AD fragment transactivation unit 5 (Tau-5*; residues 330 to 448) (from UniProt P10275) G407A
- response (EPI-001 [2]): -0.024 p.p.m.

Molecule: AR AD fragment transactivation unit 5 (Tau-5*; residues 330 to 448) (from UniProt P10275) A398P
- other: EPI-001 adduct (%) (EPI-001 [1]): 11%
- response (EPI-001 [2]): -0.012 p.p.m.

Molecule: AR AD fragment transactivation unit 5 (Tau-5*; residues 330 to 448) (from UniProt P10275) noAro
- response (EPI-001 [2]): -0.003 p.p.m.

B1: Androgen receptor activation domain fragment Ct C518 (residues 441-558, 4G polyG, C448 deleted) (Homo sapiens; del448;del451-470) (protein)
chain: EGQLYGPGGGGEAGAVAPYGYTRPPQGLAGQESDFTAPDVWYPGGMVSRVPYPSPTCVKSEMGPWMDSYSGPYGDMRLETARDHVLPIDYYFPPQKT
- pKa (Cys518): 8.20 ± 0.08

B2: estrogen receptor alpha activation domain (ERα AD) (domain or fragment, human (from the printed UniProt entry), UniProt P03372 1-184, looked up)
chain: MTMTLHTKASGMALLHQIQGNELEPLNRPQLKIPLERPLGEVYLDSSKPAVYNYPEGAAYEFNAAAAANAQVYGQTGLPYGPGSEAAAFGSNGLGGFPPLNSVSPSPLMLLHPPPQLSPFLQPHGQQVPYYLENEPSGYTVREAGPPAFYRPNSDNRRQGGRERLASTNDKGSMAMESAKETRY
notes: source: E. coli Rosetta (DE3), purified from inclusion bodies (HisTrap in urea, SEC); not shown: His tag, N-terminal, cleaved
- binding result [3]: binds

B3: progesterone receptor activation domain (PR AD) (domain or fragment, human (from the printed UniProt entry), UniProt P06401 1-566, looked up)
chain: MTELKAKGPRAPHVAGGPPSPEVGSPLLCRPAAGPFPGSQTSDTLPEVSAIPISLDGLLFPRPCQGQDPSDEKTQDQQSLSDVEGAYSRAEATRGAGGSSSSPPEKDSGLLDSVLDTLLAPSGPGQSQPSPPACEVTSSWCLFGPELPEDPPAAPATQRVLSPLMSRSGCKVGDSSGTAAAHKVLPRGLSPARQLLLPASESPHWSGAPVKPSPQAAAVEVEEEDGSESEESAGPLLKGKPRALGGAAAGGGAAAVPPGAAAGGVALVPKEDSRFSAPRVALVEQDAPMAPGRSPLATTVMDFIHVPILPLNHALLAARTRQLLEDESYDGGAGAASAFAPPRSSPCASSTPVAVGDFPDCAYPPDAEPKDDAYPLYSDFQPPALKIKEEEEGAEASARSPRSYLVAGANPAAFPDFPLGPPPPLPPRATPSRPGEAAVTAAPASASVSSASSSGSTLECILYKAEGAPPQQGPFAPPPCKAPGASGCLLPRDGLPSTSASAAAAGAAPALYPALGLNGLPQLGYQAAVLKEGLPQVYPPYLNYLRPDSEASQSPQYSFESLPQKI
notes: as for B2
- binding result [3]: binds

B4: mineralocorticoid receptor activation domain (MR AD) (domain or fragment, human (from the printed UniProt entry), UniProt P08235 1-602, looked up)
chain: METKGYHSLPEGLDMERRWGQVSQAVERSSLGPTERTDENNYMEIVNVSCVSGAIPNNSTQGSSKEKQELLPCLQQDNNRPGILTSDIKTELESKELSATVAESMGLYMDSVRDADYSYEQQNQQGSMSPAKIYQNVEQLVKFYKGNGHRPSTLSCVNTPLRSFMSDSGSSVNGGVMRAVVKSPIMCHEKSPSVCSPLNMTSSVCSPAGINSVSSTTASFGSFPVHSPITQGTPLTCSPNVENRGSRSHSPAHASNVGSPLSSPLSSMKSSISSPPSHCSVKSPVSSPNNVTLRSSVSSPANINNSRCSVSSPSNTNNRSTLSSPAASTVGSICSPVNNAFSYTASGTSAGSSTLRDVVPSPDTQEKGAQEVPFPKTEEVESAISNGVTGQLNIVQYIKPEPDGAFSSSCLGGNSKINSDSSFSVPIKQESTKHSCSGTSFKGNPTVNPFPFMDGSYFSFMDDKDYYSLSGILGPPVPGFDGNCEGSGFPVGIKQEPDDGSYYPEASIPSSAIVGVNSGGQSFHYRIGAQGTISLSRSARDQSFQHLSSFPPVNTLVESWKSHGDLSSRRSDGYPVLEYIPENVSSSTLRSVSTGSSRPSKI
notes: as for B2
- binding result [3]: binds

B5: Androgen receptor activation domain fragment Nt C123 (residues 1-151, C129S) (Homo sapiens; C129S) (protein)
chain: MEVQLGLGRVYPRPPSKTYRGAFQNLFQSVREVIQNPGPRHPEAASAAPPGASLLLLQQQQQQQQQQQQQQQQQQQQQETSPRQQQQQQGEDGSPQAHRRGPTGYLVLDEEQQPSQPQSALECHPERGSVPEPGAAVAASKGLPQQLPAPP
- pKa (Cys123 (position 123, …)): 8.86 ± 0.03

B6: glucocorticoid receptor activation domain (GR AD) (domain or fragment, human (from the printed UniProt entry), UniProt P04150 1-420, looked up)
chain: MDSKESLTPGREENPSSVLAQERGDVMDFYKTLRGGATVKVSASSPSLAVASQSDSKQRRLLVDFPKGSVSNAQQPDLSKAVSLSMGLYMGETETKVMGNDLGFPQQGQISLSSGETDLKLLEESIANLNRSTSVPENPKSSASTAVSAAPTEKEFPKTHSDVSSEQQHLKGQTGTNGGNVKLYTTDQSTFDILQDLEFSSGSPGKETNESPWRSDLLIDENCLLSPLAGEDDSFLLEGNSNEDCKPLILPDTKPKIKDNGDLVLSSPSNVTLPQVKTEKEDFIELCTPGVIKQEKLGTVYCQASFPGANIIGNKMSAISVHGVSTSGGQMYHYDMNTASLSQQQDQKPIFNVIPPIPVGSENWNRCQGSGDDNLTSLGTLNFPGRTVFSNGYSSPSMRPDVSSPPSSSSTATTGPPPKL
notes: as for B2
- binding result [3]: binds

B7: Androgen receptor activation domain fragment Tau-5* C404 (residues 330-447, C448 deleted) (Homo sapiens; del448) (protein)
chain: AAGSSGTLELPSTLSLYKSGALDEAAAYQSRDYYNFPLALAGPPPPPPPPHPHARIKLENPLDYGSAWAAAAAQCRYGDLASLHGAGAAGPGSGSPSAAASSSWHTLFTAEEGQLYGP
- pKa [4]: 8.95 ± 0.05
